# Experiment: yeast display, Sf9 membrane polyspecificity reagent, FACS + sequencing; frameworks hold sequencing errors
# In short: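 Nanobodies from a synthetic yeast display library (Saccharomyces cerevisiae BJ5465), induced 36–48 hours with galactose, were stained 1 hour at 4 °C with 10% biotinylated, detergent-solubilized Sf9 membrane reagent, enriched on streptavidin microbeads, then FACS-sorted. Anti-HA (expression) and streptavidin (reagent binding) fluorescence set low and high (top ~1%) gates. Polyreactivity labels come from the gate of origin. Genes were colony-PCR amplified, MiSeq 2 × 250 sequenced and filtered by CDR length.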
row,Sequence,polyreactivity (PSR sort gate)
1,QVQLEESGGGLVQAGGSLRLSCAASGLTFDPYAMGWSRQAPGKERELVAVITSRTGSTYYADSVKGRFTISRDNAKNTVYLQMNSLKPEDTAVYYCAAEIYYYGMYGYDYWGQGTQVTVSS,high polyreactivity
2,QVQLVESGGGLVQAGVSLRLSCDASGSIFDPYAMGWFRQAPGKEMELVAAITASGSSTYYADSVKGRFTISRDNAKNTVYLQMNSLKPEDTAVYYCAADRANWEYLLSWLGYDYWGQGTQVTVSS,low polyreactivity
3,QVQLVESGGGIVQAGGSLRLSCAASGITFKGYTMGWYRQAPGKERELVATISRGGRTYADSVKGRFTISRDNAKNTVYLQMNSLKPEDTAVYYCAAQAERYGYEYWGQGTQVTVSS,low polyreactivity
4,QVQLVASGGGLVQAGGSLRLSCAASGFIFWYYAMGWYRQAPGKERELVATITSGGSTTYADSVKGRFTISRDNAKNTVYLQMYSLKPEDTAVYYCAAKGISRYDWGQGTQVTVSS,low polyreactivity
5,QVQLVESGGGLVQAGGSLRLSCAASGFIFRRYAMGWYRPAPGKEREFVAAISWSGATTYYADSVKGRFTISRDNAKITVYLQMNSLKPEDTAVYYCAKDVRRSPSTWDNYWGQGTQVTVSS,high polyreactivity
6,QVQLVESGGGLVQAGGSLRLSCAASGRTFVYYAMGWYRQAPGTERELVAAITFSGGYTYYADSVKGRFTISRDNAKNTVYLQMNSLKPEDTAVYYCAAQYRYSYPLGDYWGQGTQVTVSS,low polyreactivity
7,QVQLVESGGGLVQAGGSLRLSCAASGLIFGGNAMGWYRQAPGKERELVAAISRSTGRTYYADSVKGRFTISRDNAKNTVYLQMNSLKPEDTAVYYCNAVGYAFPSYDSWGQGTQVTVSS,high polyreactivity
8,QVQLVESGGGLVQAGGSLRLSCAASGRTFAWYAMGWYRQAPGKERELVATITSRGGSTYYADSVKGRFTISRDNAKNTVYLQMNSLKPEDTAVYYCAAQSFWRPHQYDYWGQGTQVTVSS,low polyreactivity
9,QVQLVESGGGLVQAGGSLRLSCAASGRTFGYNVMGWYRQAPGKERELVADITSTSSTSYADSVKGRFTISRDNAKNTVYLQMNSLTPEDTAVYYCAAYYYFFRRYSWRLSGDYWGQGTQVTVSS,low polyreactivity
10,QVQLVESGGGLVQAGGSLRLSCAASGSIFSYYVMGWYRQAPGKERELVAAITSSGGSTYYADSVKGRFTISRDNAKNTVYLQMNSLKTEDTAVYYCAAYQRSQDRSYPGYEYWGQGTQVTVSS,high polyreactivity
11,QVQLVESGGGLVQAGGSLRLICAASGSISVVNMGWYRQSPGKERELVASITSSGSTTYADSVKGRFTISRDNAKNTVYLQMNSVKPEDTAVYYCASDVGTDYTYQHPAGAAYDYWGQGTQVTVSS,low polyreactivity
12,QVQLVESGGGLVQAGGSLRLSCAASGFTLFVYTMGWYRQAPGKERELVAAISSGDSTYYADSVKGRFTISRDNAKNTVYLQMNSLKPEDTAVYYCAAEWSGEAAWQVGAEDDYWGQGTQVTVSS,low polyreactivity
13,QVQLVESGGGLVQAGGSLRLSCAASGRTFNGYAMGWYRQAPGKERELVARITYRGGGTYYADSVKGRFTISRDNAKNTVYLQMNSLKPEDTAVYYCNARGVQYRYYYWGQGTQVTVSS,high polyreactivity
14,QVLLVESGGGLVHAGGSLRLSCAASGSISKINAMRRYRQAPGKERELVAAINTGDSTYYADSVKGRFTISRDNAKYTGYLQMNSLKPEDTAVYYCAAEGSPSGYDYWGQGTQVNVSS,low polyreactivity
15,QVQLVESGGGLVQAGGSLRLSCAASGNIFDEYTMGWYRQAPGKEREFVAGISDDGDTSYADSVKGRFTISRDNAKNTVYLQMNSLKPEDTAVYYCNADDLSYYESYWGFLYDYWGQGTQVTVSS,low polyreactivity
16,QVQLVESGGGLVQAGGSLRLSCAASRRTLGKYVMGRYRQQPGKERELVPAIRSGTNTYYADSVKGRFTISRDNAKNTVYLQMNSLIPEDTAVYYCGAARYTKFDYWGQGTQLTVSS,high polyreactivity
17,QVQLVESGRGLVQAGVSLRLSCAASGSTFGYYAMGWYRQAPGKERELVAAISYSGGSTYYADSVKGRFTISRDNAKNTVYLQMNSLKQEDTAVYYCAARFTRQMYYWGQGTQVNVSS,high polyreactivity
18,QVQLVESGGGLVQAGGSLRLSCAASGRIFTRYAMGWYRQAPGKERELVAAITSGGSTYYADSVKGRFSISRDNAKNTVYLQMNSLKPEDTAVYYCAAVVISSGVRYDYWGQGTQVTVSS,high polyreactivity
19,QVQLVESGGGLVQAGGSLRLSSAASGFTFKYYAMGWYRQAPGKERELVARITGSSGSTYYADSVKGRFTISRDNAKNTVYLQMNSLKPEDTAVYYCAASFKFRYYRYGAYEYWGQGTQVTVSS,high polyreactivity
20,QVQLVESGGGLVQAGGSLRLSCAASGNIFGFYTMGWYRQAPGKERELVAAIRSRGGSTNYADSVKGRFTISRDNAKNTVYLQMNSLTPEDTAVYYCNKDGTWLARAVTYADFDYWGQGTQVTVSS,low polyreactivity
21,QVQLVESGGGLVQAGGSLRLSCAASGFTFGGNAMGWYRQAPGKERELVASITSGGSTNYADSVKGRFTISRDNAKNTVYLQMNSLKPEDTAVYYCAAARTGRARRHFDYWGQGTQVTVSS,low polyreactivity

row,Sequence,polyreactivity (PSR sort gate)
1,QVQLVESGGGLVQAGGSLRLSCAASGRIFYPYAMGWYRQAPGKERELVAAIDWTAGGTYYADSVKGRFTISRDNAKNTVYLQMNSLKPEDTAVYYCAAEYYIEANGDYWGQGTQVTVSS,low polyreactivity
2,QVQLLESGGGLVQAGGSLRLSCAASGSTLNVYGMGWYRQAPGQERELVAAINRDGITYADSVKGRCTISRDNAKNTVYLQMNSLKPEDTAVYYCAGDPYDNSVPGWRRNMDYWGQGTQVTVSS,low polyreactivity
3,QVQLVESGGGLVQAGGSLRLSCAASGSNFGPNAMGWYRQAPGKERELVAAIRSNGGRTYYADSVKGRFTISRDNAKNTVYLQMNRLKPEDTAVYYCAAPHYPYDTPYGYWGHGTQVTVSS,low polyreactivity
4,QVQLVESGGGLVQAGGSLRLSCAASGFIFRYYAMGWYRQAPGKERELVAAISKRGGGTYYADSVKGRFTISRDYAKNTVFLQMNSLKPEDTAVYYCAAGPGRGRSTLGSYYWGQGTQVTVTS,high polyreactivity
5,QVQLVESGGGLVQAGGSLRLSCAASGRTCAYNAMGWYRQAPGKERELVAAITDSDGNTYYADSVKGRFTISRDNAKNTVYLQMNSLKPEDTAVYYCAADYIILDHVTRGFGYEYWGQGTQVTVSS,low polyreactivity
6,QVQLVESGGGVVQAGGSLRLSCAAYGSIFEANDMGWYRQAPGKERELVAAIDANTGSTYYADSVKGRFTISLDNAKNTVYLQMNSLKPEVTAVYYCNAQVYLQTAYDYWGQGTQVSVSS,low polyreactivity
7,QVQLVESGGGLVQAGGSLRLSCAASGRTLARNAMGWYRQAPGKERELVARIRDSGGSKYYADSVKGRFTISRDNAKNTVYLQMNSLKPEDTAVYYCAARSRLVYSYYTYWGQGTQVTVSS,high polyreactivity
8,QVQLVESGGGLVQAGGSLRLSCAASGFTFRSNAMGWYRQAPGKERELVATISSGGSTYYADSVKGRFTISRDNAKNTVYLQMNSLKPEDTAVYYCAADDLGWWFYSGGEDYDYWGQGTQVTVSS,low polyreactivity
9,QVQLVESGGGLVQAGGSLRLSCAASGFTFTAYAMGWYRQAPGKERELVAAINWSGSRTYYADSVKGRFTISRDNAKNTVYLQMNSLIPEDSAVYYCNTATSKSSYRHYDYWGQGTQVTVSS,high polyreactivity
10,QVQLVESGGGLVQAGGSLRLSCAASGRIFIYNAMGWYRQAPGKERELVAAISVSGGRTYYADSVKGRFTISRDNAKNTVYLQMNSLKPEDTAVYYCNKVRVGSLRGYWGQGTQVTVSS,high polyreactivity
11,QVQLVESGGGLVQAGGSLRLSCAASGIIFYYYAMGWYRQAPGKERELVACISYSGGSTYADSVKGRFTISRDNAKNTVYLQMNSLKPEDTAVYYCAADYDYGGHWYDYWGQGTQVTVSS,low polyreactivity
12,QVQLVESGGGLVQAGGSLRLSCAASGSTFGWYGMGWYRQAPGKERELVASIRWSGGITYYADSVKGRFTISRDNAKNTVYLQMNSLKPEDTAVYSCAARTYRYFGRYDYWGQGTQVTVSS,high polyreactivity
13,QVQLVESGGGLVQAGGSLRLSCSASGFTFDYYAMGWYRQAPGKERELVAAITWNTVSTYYADSVKGRFTISRDNAKNTVYLQMNSLKPEDTAVYYCAADTQWLYRYDYWGQGTQVTVSS,low polyreactivity
14,QVQLVESGGGLVQAGGSLRLSCAASGRIFGRYAMGWYRQAPGKDRELVAAISSRGSRTYYADSVKGRFTISRDNAKNTVYLQMNSLKPEVTAVYYCAASWLSYPSDYDYWGQGTQVTVSS,high polyreactivity
15,QVQLVESGGGLVQAGGSLRLSCASSGRIFRYNTMGWYRPAPGKERELVADITSSDSSTYYADSVKGRFTISRDNAKNTVDLQMNSLKPEETAVYYCAARDSGYGWRYSYWGQGTQVTVSA,low polyreactivity
16,QVQLVESGGGLVQAGGSIRLSCAASGLTLIVNSMGWYRQAPGKERDLVASITIGGTTYADSVKGRFTISRDNAKNTVYLQMNSLKTEVTAVYYCAADYSSFSIDTGYDYWGQGTQVTVSS,low polyreactivity
17,QVQLVESGGGLVQAGGSLRLSCAASGRTFLGYAMGWYRQAPGKERELVAAISWDGTSTYYADSVKGRFTISRDNAKNTVYLQMNSLKPEDTAVYDCAAQLTDYQSKTLSYDYWGQGTQVTVSS,low polyreactivity
18,QVQLVESGGGLVQAGGSLRLSCAASGSTFVPYAMGWYRQAPGKERELVAAINIGGRTNYADSVKGRFTISRDNAKNTVYLQMNSLKPEDTAVYYCAAEWGYYARSQYYYWGQGTQVTVSS,low polyreactivity
19,QVQLVESGGGLVQAGGSLRLSCAASGFIFGFYAMGWYRQAPGKERELVAAISSSGGSTYYADSVKGRFTISRDTAKNTGYLQMNSLKPEDTAVYYCAAYFYYLDDAVTYDYWGQGTQVTVSS,low polyreactivity
20,QVQLVESGGGLVQAGGSLRLSCAASGRTIPTYDMGWYRQAPGKERELVASIRSGGRTKYADSVKGRFTISRVNAKNTVYLQMNSLKPEDTAVYYCAADRRAYYYSFDYWGQGTQVTVSS,low polyreactivity
